Assay results published in paper PMC5788916, “The SAM domain of mouse SAMHD1 is critical for its activation and regulation” (Nature Communications, 2018).
Where “and” joins values, the source holds several entries; their conditions need not be identical. Identical values can stand only once.

Key:
[1] = target: full-length mouse SAMHD1 (mSAMHD1), wild type (mouse) (UniProt Q60710); experiment: not stated; up to 24 h of assembly with dGTP-α-S (Supplementary Fig. 1a)
[2] = target: full-length mouse SAMHD1 (mSAMHD1), wild type (mouse) (UniProt Q60710); experiment: AUC; sedimentation velocity, 0.8-1.3 mg/mL, 20 °C, 50 mM Tris-HCl pH 8.0, 150 mM NaCl, 5 mM MgCl2, 0.5 mM TCEP; protein alone, no nucleotides added
[3] = target: full-length mouse SAMHD1 (mSAMHD1), wild type (mouse) (UniProt Q60710); experiment: AUC; sedimentation velocity, 0.8-1.3 mg/mL, 20 °C, 50 mM Tris-HCl pH 8.0, 150 mM NaCl, 5 mM MgCl2, 0.5 mM TCEP; with 150 uM nucleotides (dGTP-α-S)
[4] = target: full-length mouse SAMHD1 (mSAMHD1), wild type (mouse) (UniProt Q60710); experiment: SEC; Superdex 200 10/300 GL; 2 mg/ml, 200 ul; 50 mM Tris-HCl pH 8.0, 150 mM NaCl, 5 mM MgCl2, 0.5 mM TCEP; after addition of dGTP-α-S (methods: nucleotide 4 mM final); read-out: assembly of monomers or dimers into tetramers
[5] = target: full-length mouse SAMHD1 (mSAMHD1), wild type (mouse) (UniProt Q60710); experiment: as above; remark: listed apart in the source
[6] = target: full-length mouse SAMHD1 (mSAMHD1), wild type (mouse) (UniProt Q60710); experiment: crystal structure; 1-Allo: co-crystallised with 4 mM dGTP-α-S; space group P2(1)2(1)2, 2 copies in the asymmetric unit; 3.4 Å
[7] = target: full-length mouse SAMHD1 (mSAMHD1), wild type (mouse) (UniProt Q60710); experiment: crystal structure; No-Allo (0-Allo): crystallised without nucleotides; space group C2, 4 copies in the asymmetric unit; 3.5 Å
[8] = target: full-length mouse SAMHD1 (mSAMHD1), wild type (mouse) (UniProt Q60710); experiment: AUC; sedimentation velocity, 0.8-1.3 mg/mL, 20 °C, 50 mM Tris-HCl pH 8.0, 150 mM NaCl, 5 mM MgCl2, 0.5 mM TCEP; with 150 uM nucleotides (dGTP-α-S); remark: listed apart in the source
[9] = target: full-length mouse SAMHD1 (mSAMHD1), wild type (mouse) (UniProt Q60710); experiment: SEC; Superdex 200 10/300 GL; 2 mg/ml, 200 ul; 50 mM Tris-HCl pH 8.0, 150 mM NaCl, 5 mM MgCl2, 0.5 mM TCEP; no nucleotides added
[10] = target: mouse SAMHD1 HD domain, isoform 2 (residues 145-651) (mouse); experiment: AUC; sedimentation velocity, 0.8-1.3 mg/mL, 20 °C, 50 mM Tris-HCl pH 8.0, 150 mM NaCl, 5 mM MgCl2, 0.5 mM TCEP; protein alone, no nucleotides added
[11] = target: mouse SAMHD1 HD domain, isoform 2 (residues 145-651) (mouse); experiment: AUC; sedimentation velocity, 0.8-1.3 mg/mL, 20 °C, 50 mM Tris-HCl pH 8.0, 150 mM NaCl, 5 mM MgCl2, 0.5 mM TCEP; with 150 uM nucleotides (dGTP-α-S)
[12] = target: mouse SAMHD1 HD domain, isoform 2 (residues 145-651) (mouse); experiment: as above; remark: listed apart in the source
[13] = target: mouse SAMHD1 HD domain, isoform 2 (residues 145-651) (mouse); experiment: SEC; Superdex 200 10/300 GL; 2 mg/ml, 200 ul; 50 mM Tris-HCl pH 8.0, 150 mM NaCl, 5 mM MgCl2, 0.5 mM TCEP; after addition of dGTP-α-S (methods: nucleotide 4 mM final); read-out: assembly of monomers or dimers into tetramers
[14] = target: the molecule itself; experiment: as above
[15] = target: the molecule itself; experiment: AUC; sedimentation velocity, 0.8-1.3 mg/mL, 20 °C, 50 mM Tris-HCl pH 8.0, 150 mM NaCl, 5 mM MgCl2, 0.5 mM TCEP; protein alone, no nucleotides added

Molecule: full-length mouse SAMHD1 (mSAMHD1), wild type (from UniProt Q60710 1-658) (enzyme)
- stoichiometry N [1]: 4
- stoichiometry N [2]: 2 and 4
- stoichiometry N [3]: 2
- stoichiometry N [4]: 4
- stoichiometry N [5]: 2
- stoichiometry N [6]: 4
- stoichiometry N [7]: 4
- stoichiometry N [8]: 4
- stoichiometry N [9]: 2 and 4

Molecule: mouse SAMHD1 HD domain, isoform 2 (residues 145-651) (domain or fragment)
- stoichiometry N [10]: 2
- stoichiometry N [11]: 4
- stoichiometry N [12]: 2
- stoichiometry N [13]: 4

B1: mouse SAMHD1 HD domain, isoform 1 (residues 145-658) (domain or fragment, UniProt Q60710 145-658, looked up)
chain: DLMKVFNDPIHGHIEFHPLLIRIIDTPQFQRLRYIKQLGGGYYVFPGASHNRFEHSLGVGYLAGCLVRALAEKQPELQISERDILCVQIAGLCHDLGHGPFSHMFDGRFIPRARPEKKWKHEQGSIEMFEHLVNSNELKLVMKNYGLVPEEDITFIKEQIMGPPITPVKDSLWPYKGRPATKSFLYEIVSNKRNGIDVDKWDYFARDCHHLGIQNNFDYKRFIKFARICEVEYKVKEDKTYIRKVKHICSREKEVGNLYDMFHTRNCLHRRAYQHKISNLIDIMITDAFLKADPYVEITGTAGKKFRISTAIDDMEAFTKLTDNIFLEVLHSTDPQLSEAQSILRNIECRNLYKYLGETQPKREKIRKEEYERLPQEVAKAKPEKAPDVELKAEDFIVDVINVDYGMEDKNPIDRVHFYCKSNSKQAVRINKEQVSQLLPEKFAEQLIRVYCKKKDGKSLDAAGKHFVQWCALRDFTKPQDGDIIAPLITPLKWNNKTSSCLQEVSKVKTCLKF
notes: mouse SAMHD1 isoform 1, HD domain without the SAM domain, residues 145-658; The text speaks of 'mHD' and gives limits for both isoforms; source: E. coli BL21 (DE3), purified (Ni-NTA, size-exclusion chromatography)
- stoichiometry N [14]: 4
- stoichiometry N [15]: 2

B2: human SAMHD1 L77F/C80F/H111R triple mutant (FFR) (enzyme, UniProt Q9Y3Z3 1-626, looked up)
chain: MQRADSEQPSKRPRCDDSPRTPSNTPSAEADWSPGLELHPDYKTWGPEQVCSFLRRGGFEEPVLLKNIRENEITGAFLPFLDESRFENLGVSSLGERKKLLSYIQRLVQIRVDTMKVINDPIHGHIELHPLLVRIIDTPQFQRLRYIKQLGGGYYVFPGASHNRFEHSLGVGYLAGCLVHALGEKQPELQISERDVLCVQIAGLCHDLGHGPFSHMFDGRFIPLARPEVKWTHEQGSVMMFEHLINSNGIKPVMEQYGLIPEEDICFIKEQIVGPLESPVEDSLWPYKGRPENKSFLYEIVSNKRNGIDVDKWDYFARDCHHLGIQNNFDYKRFIKFARVCEVDNELRICARDKEVGNLYDMFHTRNSLHRRAYQHKVGNIIDTMITDAFLKADDYIEITGAGGKKYRISTAIDDMEAYTKLTDNIFLEILYSTDPKLKDAREILKQIEYRNLFKYVGETQPTGQIKIKREDYESLPKEVASAKPKVLLDVKLKAEDFIVDVINMDYGMQEKNPIDHVSFYCKTAPNRAIRITKNQVSQLLPEKFAEQLIRVYCKKVDRKSLYAARQYFVQWCADRNFTKPQDGDVIAPLITPQKKEWNDSTSVQNPTRLREASKSRVQLFKDDPM
notes: human SAMHD1 with three SAM domain residues changed to their mouse counterparts; compared with full-length WT hSAMHD1; also called FFR mutant; source: purified
- stoichiometry N [14]: 4
